For data set [1], the target named is BIR1 C12A/S87A/N28C-GdI (UniProt P98170). Nature of the data set: DEER.
Data set [2] deals with the molecule itself. Kind of data set: DEER.
Data set [3] concerns the molecule itself. Kind of data set: DEER. This is another data set of the same source.
Data set [4] concerns the molecule itself. Kind of data set: NMR titration.

Positions count from the first letter of the chain named. In names and notes the source's numbering stands.

The Kd is the equilibrium constant for the complex coming apart. The molecule “BIR1 C12A/S87A/N28C-GdI (from UniProt P98170 10-99) (domain or fragment)” came in with a Kd in data set [1] of 97.5 µM.

B1: WT BIR1 C12-GdI (first baculoviral IAP repeat domain of XIAP, spin-labelled at C12 with BrPSPy-DO3A-Gd3+) (domain or fragment)
chain: KTCVPADINKEEEFVEEFNRLKTFANFPSGSPVSASTLARAGFLYTGEGDTVRCFSCHAAVDRWQYGDSAVGRHRKVSPNCRFINGFYLE
modifications: BrPSPy-DO3A-Gd3+ (GdI) spin label on C12 via a thioether bond
In data set [2], B1 came in with a Kd of 126 ± 40 µM.

B2: BIR1 C12A/K19C-GdI (domain or fragment)
chain: B1 chain with C3A, K10C
modifications: BrPSPy-DO3A-Gd3+ (GdI) spin label on C19 (K19C) via a thioether bond
As for B2, the Kd in data set [2] stood at 126 ± 40 µM.

B3: BIR1 C12A/N28C-GdI (domain or fragment)
chain: B1 chain with C3A, N19C
modifications: BrPSPy-DO3A-Gd3+ (GdI) spin label on C28 (N28C) via a thioether bond
Consider B3, for which the Kd in data set [3] was found to be 11.3 ± 3.8 µM; in data set [2], 126 ± 40 µM.

B4: WT BIR1 (first baculoviral IAP repeat domain of XIAP), without spin label (domain or fragment)
chain: B1 chain
modifications: 15N isotope-labelled (NMR samples)
In turn, B4 returned a Kd in data set [4] of 4.7 ± 2 µM.

B5: BIR1 C12A/E22C-GdI (domain or fragment)
chain: B1 chain with C3A, E13C
modifications: BrPSPy-DO3A-Gd3+ (GdI) spin label on C22 (E22C) via a thioether bond
As for B5, the Kd in data set [2] is 126 ± 40 µM.

B6: S87A BIR1 mutant, without spin label (domain or fragment)
chain: B1 chain with S78A
modifications: 15N isotope-labelled (NMR samples)
The molecule B6 displayed a Kd in data set [4] of 20.3 ± 4.6 µM.

B7: BIR1 C12A/V24C-GdI (domain or fragment)
chain: B1 chain with C3A, V15C
modifications: BrPSPy-DO3A-Gd3+ (GdI) spin label on C24 (V24C) via a thioether bond
As for B7, binding in data set [2] was put at a Kd of 126 ± 40 µM.

For the origin of these results see publication doi:10.1101/2020.03.27.011510 (bioRxiv, 2020).
